Experimental findings from US20240164355 are described below.

Data set [1] addresses all forms of lysine-linked (isopeptide-linked) diubiquitin.
Data set [2] addresses ISG15-AMC, P05161.
For data set [3], the target named is Nedd8-AMC, Q15843.
The target in data set [4] is SUMO1-AMC, P63165.
For data set [5], the target named is SUMO2-AMC, P61956.
Data set [6] deals with Ubiquitin-AMC (Ub-AMC), P0CG48.
Ubiquitin-AMC (Ub-AMC), P0CG48, sequence (P0CG48 whole entry, looked up): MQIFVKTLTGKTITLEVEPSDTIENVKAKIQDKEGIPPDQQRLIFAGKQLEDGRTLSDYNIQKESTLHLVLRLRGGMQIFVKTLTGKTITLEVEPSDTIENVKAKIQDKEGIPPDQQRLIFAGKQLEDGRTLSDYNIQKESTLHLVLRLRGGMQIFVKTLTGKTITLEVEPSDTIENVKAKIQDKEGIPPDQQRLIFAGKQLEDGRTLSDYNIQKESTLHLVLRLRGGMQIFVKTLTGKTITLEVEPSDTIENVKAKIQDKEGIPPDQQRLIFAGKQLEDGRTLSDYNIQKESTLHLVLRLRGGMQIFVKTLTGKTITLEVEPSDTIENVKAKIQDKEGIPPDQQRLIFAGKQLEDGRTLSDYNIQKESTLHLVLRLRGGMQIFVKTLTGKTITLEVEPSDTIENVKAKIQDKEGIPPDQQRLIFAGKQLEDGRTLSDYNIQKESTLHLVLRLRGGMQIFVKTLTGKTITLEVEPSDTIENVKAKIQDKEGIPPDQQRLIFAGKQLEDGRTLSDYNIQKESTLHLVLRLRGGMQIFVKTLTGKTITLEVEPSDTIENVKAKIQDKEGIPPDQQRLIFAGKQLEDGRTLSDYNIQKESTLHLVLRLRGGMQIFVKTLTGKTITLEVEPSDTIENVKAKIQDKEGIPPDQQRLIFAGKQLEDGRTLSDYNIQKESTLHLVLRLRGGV

Nedd8-AMC, Q15843, sequence (Q15843 whole entry, looked up): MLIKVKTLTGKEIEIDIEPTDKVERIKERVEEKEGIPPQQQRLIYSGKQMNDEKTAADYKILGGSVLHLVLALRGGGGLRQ
SUMO2-AMC, P61956, sequence (P61956 1-93): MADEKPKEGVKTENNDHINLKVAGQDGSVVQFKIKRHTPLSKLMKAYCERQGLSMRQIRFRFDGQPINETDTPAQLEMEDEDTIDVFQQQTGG
ISG15-AMC, P05161, sequence (P05161 2-157): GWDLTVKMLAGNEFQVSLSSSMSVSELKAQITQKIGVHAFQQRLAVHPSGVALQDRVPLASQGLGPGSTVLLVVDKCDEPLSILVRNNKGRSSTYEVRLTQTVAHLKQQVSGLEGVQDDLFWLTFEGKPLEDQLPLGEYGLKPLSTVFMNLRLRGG
SUMO1-AMC, P63165, sequence (P63165 2-97): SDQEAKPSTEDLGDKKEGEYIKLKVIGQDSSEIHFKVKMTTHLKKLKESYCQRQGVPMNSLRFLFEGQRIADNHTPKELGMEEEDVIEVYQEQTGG

B1: CidB (CidB^wPip), full length (protein)
chain: MSNGDGLIRSLVDGDLEGFRQGFESFLDQCPSFLYHVSAGRFLPVFFFSMFSTAHDANILNANERVYFRFDNHGVNPRNGENRNTANLKVAVYRDGQQVVRCYSISDRPNSDGLRFSTRERNALVQEIRRQNPNLREEDLNFEQYKVCMHGKGKSQGEAIATVFEVIREKDRQGRDKFAKYSASEVHFLRQLFRNHRLTIKEIEGRQLNQNQLRQLGRSVNFTRVEPGQQRIDNFMEMLASNQRQDVRDSLRGDILEYVTDTYNNYRAQIENNIEGRSQKFESHGFLLGFLANFSHRYTIGVDLDLSPRNSHVAFLVRHQVERENIPIVINLATRAPPYIALNRARSHAERLHVFSFIPIHTESRNTVCVGLNFNLNLDPFSVDTVGLQQDRFPLVQRLFECLENEGIRENIRDFLLHHLPAEIPRNAENYDRIFDCITGFAFGNSAFDRHPLELEEEDEAPITKYIFRHGDEGLRCLTMVFHAEGSDIVILHIRAHDAQQQGAINLQTLNVNGNDVHVWEVSCTLNNQLELDIDLPNDLGLYHDYQNNNANNFLAGDLVQVPNTENVHNTLNQVVNDGWKNIAQHRGLFQEISGALMPLVDTINVNSEDKFRSILHGTFYASDNPYKVLAMYKVGQTYSLKRGQEEEGERVILTRITEQRLDLLLLRQPRENDLDTHPIGYVLRLANNAEEVGQQQNDARQEIGRLKKQHRGFIPITSGNEVVLFPIVFNRDAHEAGNLILFPEGIGREEHVHRLDRHVRSSRPGGLVGPESVIDENPPEGLLSDQTRENFRRFYEEKAPGQNSIFLLDIGDNLHVPFSYLQGTRAQVIETLKSRIRGGGTPTAQGILQQINAILRRNNAREIEDVHDLLALDFATDNQNYRYWLQTHDMFFAARQYTFLDNQSHSTNDHYGFEITSVGVDGNQNDPTGRGLLSSHITNFKQKVDSGEKDRLIAIINVGNRHWVTLVIVHQNGNYYGYYADSLGPDSGIDNNIRGALRECDINDDNVHNISVHQQTDGHNCGIWVYENARDINQAIDQALQGNNNFGEKGEGIIGYIRGLLSAGIGNDTRQPRRNEQYFEDRRRDISQLLQNDPNLPSRRSDLIQAHPGIQHEIDPLLLQFLGLQYPQRGGGGALQLGGERVISIDFGNPQSALDKIDGVSRVYNHSNSRGSR
As to B1, the “diubiquitin cleavage (panel digest)” value in data set [1] is “Full length CidB cleaves all forms of lysine-linked (isopeptide-linked) diubiquitin, albeit with variable efficiency”.

B2: CidB(762-1143) (protein)
chain: SSRPGGLVGPESVIDENPPEGLLSDQTRENFRRFYEEKAPGQNSIFLLDIGDNLHVPFSYLQGTRAQVIETLKSRIRGGGTPTAQGILQQINAILRRNNAREIEDVHDLLALDFATDNQNYRYWLQTHDMFFAARQYTFLDNQSHSTNDHYGFEITSVGVDGNQNDPTGRGLLSSHITNFKQKVDSGEKDRLIAIINVGNRHWVTLVIVHQNGNYYGYYADSLGPDSGIDNNIRGALRECDINDDNVHNISVHQQTDGHNCGIWVYENARDINQAIDQALQGNNNFGEKGEGIIGYIRGLLSAGIGNDTRQPRRNEQYFEDRRRDISQLLQNDPNLPSRRSDLIQAHPGIQHEIDPLLLQFLGLQYPQRGGGGALQLGGERV
Turning to B2, the “UBL-AMC hydrolysis (AMC release)” value in data set [2] was “Despite testing human ISG15-AMC and SUMO1/2-AMC with several concentrations of CidB (up to 400 nM), we failed to detect any AMC release”; in data set [4] it was “Despite testing human ISG15-AMC and SUMO1/2-AMC with several concentrations of CidB (up to 400 nM), we failed to detect any AMC release”; in data set [5], “Despite testing human ISG15-AMC and SUMO1/2-AMC with several concentrations of CidB (up to 400 nM), we failed to detect any AMC release”. In addition, the “kcat/KM for Nedd8-AMC” value in data set [3] is recorded as “its kcat/KM for Nedd8-AMC was determined to be 0.69 µM^-1 min^-1”. Moreover, in data set [6], the “catalytic efficiency for Ub-AMC relative to Nedd8-AMC” value was “CidB^wPip catalytic efficiency for hydrolyzing Ub-AMC is 11-fold greater than for Nedd8-AMC”. Moreover, the “kcat/KM for Ub-AMC hydrolysis” value in data set [6] is on record as “the kcat/KM for Ub-AMC hydrolysis was 7.59 µM^-1 min^-1”.

B3: CidB^wMel (797-1128) (protein)
chain: QNSIFLLDIDDNLHVPFSYLQGTRAQAIETLRSRIRGGGTSTAQGILQQINTILRRNNAREIEDVHNLLALDFATENQNFRYWLQTHDMFFAARQYTFHDDRSNPTNDRHDFAITSVGVDGNQNDPTGRDLLSSNIDNFKQKVDSGEKDRLTAIINVGNRHWVTLVIVHQNGNYYGYYADSLGPDSRIDNNIRGALRECDISDDNVHDVSVHQQTDGHNCGIWAYENARDINQAIDQALQGNSNFGEKGEGIIGYIRGLLSAGIGNDTRQPQRNEQYFRNRRRNISQLFQNDSLSSPRGRLIQGRPGIQHEIDPLLLQFLELQYPQRGGGGA
Consider B3, for which the “Nedd8-AMC hydrolysis (AMC release)” value in data set [3] was “both CidB and CidB^wMel cleaved Ub-AMC, and to a much lesser extent, the UBL Nedd8-AMC”. Also, the “Ub-AMC hydrolysis (AMC release)” value in data set [6] is “both CidB and CidB^wMel cleaved Ub-AMC, and to a much lesser extent, the UBL Nedd8-AMC”.
